Assay in all cases: kinetics
The target in one series is Asp132 (UniProt position 132, HIGAPDMAFPR). The settings on record: Continuous catalytic turnover; cited from earlier work.
Another series addresses Asp26 (UniProt position 26, FMSTNDKDIGV). The settings on record: Continuous catalytic turnover.
For the next series, the target named is Asp139 (UniProt position 139, AFPRMDNLSYW). The following applies: Continuous catalytic turnover; cited from earlier work.
Another series deals with Cys139 (UniProt position 139, AFPRMCNLSYW). The settings on record: Continuous catalytic turnover; cited from earlier work.

As a reminder, the pKa is the negative logarithm of the acid dissociation constant.

As to “Cytochrome c oxidase (aa3-type), subunit I, in subunit III-depleted enzyme [WT III (−)] (Rhodobacter sphaeroides)”, in the series with Asp132, the pKa is on record as 7.0–7.3. With “Cytochrome c oxidase (aa3-type), subunit I H26D-D132A, subunit III-depleted (Rhodobacter sphaeroides; H26D;D132A)”, in the series with Asp26, the pKa is recorded as 7.0 (6.9–7.1).

Take “Cytochrome c oxidase (aa3-type), subunit I N139D-D132N, subunit III-depleted (Rhodobacter sphaeroides; N139D;D132N)”: in the series with Asp139, the pKa was 7.7 (7.5–7.9). With “Cytochrome c oxidase (aa3-type), subunit I N139C-D132N, subunit III-depleted (Rhodobacter sphaeroides; N139C;D132N)”, the pKa in the series with Cys139 is given as 8.0 (7.9–8.1).

The record behind these values is PMC3294125.
